From patent US6559282B1, “Artificial T helper cell epitopes as immune stimulators for synthetic peptide immunogens including immunogenic LHRH peptides” (United Biomedical, Inc., priority 1998, dated 2003)
Marks after values point to notes of the source that are not given here.

Key:
LHRH = target: T1, LHRH (Rattus norvegicus, UniProt P07490); test: Serum testosterone RIA in rats immunized with LHRH peptide immunogens (immunocastration); format: in vivo, Sprague-Dawley rats, male; conditions: i.m., serum at weeks 10 or 12
T1 construct: from tissue; host or cells: living male rats (in vivo, endogenous hormone)
Protocol: B. Protocols for immunization. The LHRH peptide immunogens shown in Tables 2a and 2b were evaluated on groups of 5 to 10 rats as specified by the experimental immunization protocol outlined below and by serological assays for determination of immunogenicity on serum samples:
Blood was collected and processed into serum, and stored prior to ELISA and radioimunoassay (RIA) for determination of serum testosterone values.
D. Determination of immunogen efficacy. Immunogens were evaluated for efficacy by RIA for serum testosterone values. Serum testosterone levels were measured using an RIA kit from Diagnostic Products (Los Angeles, Calif.) according to manufacturer's instructions. The lower detection limit for testosterone ranged from 0.01 to 0.03 nmol/L. Each sample was analyzed in duplicate. Serum samples were scored as being at castration level when the testosterone level was below limits of detection and as “near castration” at <0.1 nmol/L. Results were verified by comparison to testosterone levels in serum from mechanically castrated rats.
E. Results. […] The efficacy of the anti-peptide antibody responses, consequential to the cross-reactivity to natural LHRH, was established by determining serum testosterone levels. Those results are summarized in the right columns of Tables 2a and 2b as numbers of animals having castration level serum testosterone per total animals in the group.

artificial Th epitope = test: ELISA of immune rat sera on the Th epitope peptide (antibody specificity); format: in vivo, rats; conditions: 25 μg doses on Alum at 0 and 3 weeks; sera diluted 1:100; ELISA on respective Th peptide
[1] = system: LHRH peptide (SEQ ID NO:77); test: ELISA of immune rat sera on LHRH peptide-coated plates (immunogenicity); format: in vivo, Sprague-Dawley rats, male; conditions: 25 μg doses on Alum at 0 and 3 weeks; ELISA peptide SEQ ID NO: 28
Protocol: C. Method for determination of immunogenicity. Antibody activities were determined by ELISA (enzyme-linked immunosorbent assays) using 96-well flat bottom microtiter plates which were coated with the LHRH peptide (SEQ ID NO:77) as immunosorbent. Aliquots (100 μL) of the peptide immunogen solution at a concentration of 5 μg/mL were incubated for 1 hour at 37° C. The plates were blocked by another incubation at 37° C. for 1 hour with a 3% gelatin/PBS solution. The blocked plates were then dried and used for the assay. Aliquots (100 μL) of the test immune sera, starting with a 1:100 dilution in a sample dilution buffer and ten-fold serial dilutions thereafter, were added to the peptide coated plates. The plates were incubated for 1 hour at 37° C.
The plates were washed six times with 0.05% Tween® in PBS. 100 μL of horseradish peroxidase labeled goat-anti-rat IgG antibody was added at appropriate dilutions in conjugate dilution buffer (Phosphate buffer containing,0.5M NaCl, and normal goat serum). The plates were incubated for 1 hour at 37° C. before being washed as above. Aliquots (100 μL) of o-phenylenediamine substrate solution were then added. […] The A492 nm of the contents of each well was read in a plate reader. ELISA titers were calculated based on linear regression analysis of the absorbances, with cutoff A492 nm set at 0.5. […]

Row | Substance | no. castrated (animals having castration level serum testosterone per total animals in the group) (LHRH; 25 μg/dose, Alum (0,3 wpi)) | further results
1 | 48 (LTEMRTVIVTRMETVGGEHWSYGLRPG) [compound 48] | 1/6 | –
2 | 38 (EISEIRGIIIHRIEGIGGEHWSYGLRPG) [compound 38] | 5/6 | –
3 | 32 (KKKIITITRIITIITTI) [compound 32] | 1/6 | –
4 | 34 (FITMDTKFLLASTHIL) [compound 34] | 1/8 | no. castrated (animals having castration level serum testosterone per total animals in the group) (LHRH; 100 μg/dose, IFA (0,3,6 wpi)): 4/6
5 | 37 (DLSDLKGLLLHKLDGLGGEHWSYGLRPG) [compound 37] | 0/6 | –
6 | 41 (ISEIKGVIVHKIEGIGGEHWSYGLRPG) [compound 41] | 6/6 | Th Reactivity: number of animals with anti-Th reactivity >0.100 A490/total animals immunized (artificial Th epitope): 0/6^c; LHRH Reactivity: number of animals with anti-LHRH titers >1:1000/total animals immunized [1]: 6/6
7 | 29 (KKKFFFFTKFFTFPVSFD) [compound 29] | – | no. castrated (animals having castration level serum testosterone per total animals in the group) (LHRH; 400 μg/dose, Alum (0,3,6 wpi)): 5/5; no. castrated (animals having castration level serum testosterone per total animals in the group) (LHRH; 400 μg/dose, IFA (0,3,6 wpi)): 8/10
8 | 42 (MTEIRTVIVTRMETMGGEHWSYGLRPG) [compound 42] | 6/6 | –
9 | 54 (ISMTEIRTVIVTRMETMLFGGEHWSYGLRPG) [compound 54] | 0/8 | –
10 | 39 (DVSDVKGVVVHKVDGVGGEHWSYGLRPG) [compound 39] | 3/6 | –
11 | 40 (DFSDFKGFFFHKFDGFGGEHWSYGLRPG) [compound 40] | 4/8 | –
12 | 30 (KKKLFLLTKLLTLPFSLD) [compound 30] | – | no. castrated (animals having castration level serum testosterone per total animals in the group) (LHRH; 400 μg/dose, Alum (0,3,6 wpi)): 2/5; no. castrated (animals having castration level serum testosterone per total animals in the group) (LHRH; 400 μg/dose, IFA (0,3,6 wpi)): 9/10
13 | 47 (MSEIKGVIVHKLEGMGGEHWSYGLRPG) [compound 47] | 2/6 | –
14 | 35 (KKKFITMDTKFLLASTHIL) [compound 35] | 2/6 | –
15 | 33 (KKKMMTMTRMITMITTID) [compound 33] | 5/5 | –
16 | 43 (LSEIKGVIVHKLEGVGGEHWSYGLRPG) [compound 43] | 14/14 | no. castrated (animals having castration level serum testosterone per total animals in the group) (LHRH; 100 μg/dose, IFA (0,3,6 wpi)): 6/6
